Measurements taken from the RNAGym collection of RNA variant scans (doi:10.1073/pnas.2313332121).
Variants at the floor of the assay were thinned out.

B1: TPR 5TU (parent)
chain: GGAUCUUCUCGAUCUAACAAAAAAGACAAAUCUGCCACAAAGCUUGAGAGCAUCUUCGGAUGCAGAGGCGGCAGCCUUCGGUGGCGCGAUAGCGCCAACGUUCUCAACUAUGACACGCAAAACGCGUGCUCCGUUGAAUGGAGUUUAUCAUG

Variants of: B1
Test: polymerase ribozyme fitness, log enrichment relative to wild type (log ratio); higher = more active; in vitro selection for triplet polymerase activity
Summary of the method: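 Each subunit of a heterodimeric triplet polymerase ribozyme was represented by a PCR-built, transcribed mutant library that underwent triplicate single-round in vitro selection with frozen incubation at −7 °C. Extended constructs were recovered by gel excision, streptavidin-bead capture and RT-PCR, and Illumina sequencing of input and output libraries kept genotypes with ≥10 input reads and ≥1 read per output. Fitness is the logarithm of genotype enrichment relative to wild-type enrichment, from inverse-variance-weighted replicate averages, with a logarithm base of 2.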

C32U U56A G58A G68A C76A C93A and G34C G88U U144A cannot be ordered by “polymerase ribozyme fitness (log ratio)” value: ≤ -4.2 for the first, ≤ -4.2 for the second.

Compared with U31C C95A C96A U134C G143A U145G, U33A G58C G92A G136U is lower in “polymerase ribozyme fitness (log ratio)” value: -3.45 for the first, ≤ -4.2 for the second.

Compared with U31C C69G C96U G117U C118G, U33A C69G C87G is lower in “polymerase ribozyme fitness (log ratio)” value: -1.49 for the first, ≤ -4.2 for the second.

Compared with U31G G50U U56G, U31C C36G U56A G70C G94A C129G is lower in “polymerase ribozyme fitness (log ratio)” value: -1.97 for the first, -3 for the second.

Compared with G34C A52G G84A U109A C125U, U33C A41C is higher in “polymerase ribozyme fitness (log ratio)” value: ≤ -4.2 for the first, -3.48 for the second.

First: G34U A37G G50U A89C G92A A138U
Second: C32U U55A
The “polymerase ribozyme fitness (log ratio)” value of the first is lower: ≤ -4.2 for the first, -1.62 for the second.

First: C32U U55G
Second: U31A C93A U127C
The “polymerase ribozyme fitness (log ratio)” value of the first is higher: -1.52 for the first, -3.92 for the second.

C35G C36G G128U and C32G C93G cannot be ordered by “polymerase ribozyme fitness (log ratio)” value: ≤ -4.2 for the first, ≤ -4.2 for the second.

First: C35U A49C G59A C96A U148G A150C
Second: U31A
The “polymerase ribozyme fitness (log ratio)” value of the first is lower: ≤ -4.2 for the first, 0.37 for the second.

U31G and U31C are within 0.2 log units of each other in “polymerase ribozyme fitness (log ratio)” value: 0.749 for the first, 0.947 for the second.

Compared with U31A G58A U61A G84U A89C, G34A C85A A91C C103G is lower in “polymerase ribozyme fitness (log ratio)” value: -3.15 for the first, ≤ -4.2 for the second.

G34C G74A U109A C123U C149U and U31C G70A A98G G124C cannot be ordered by “polymerase ribozyme fitness (log ratio)” value: ≤ -4.2 for the first, ≤ -4.2 for the second.

Going from C35A C57U C85U C118U G128A G152U to U31C A41G A66C G68C C95G, the “polymerase ribozyme fitness (log ratio)” value falls from -3.96 to ≤ -4.2.

Going from U33G G65A G70C C108U to U31C C57A G83U C118U G124U A142C, the “polymerase ribozyme fitness (log ratio)” value rises from ≤ -4.2 to -2.24.

Going from U31G G94U A119U to U33G A52G U130G C131U G133U U146A, the “polymerase ribozyme fitness (log ratio)” value falls from -0.547 to ≤ -4.2.

Going from U31C C85G A98G to C32G C35U C72G A106C, the “polymerase ribozyme fitness (log ratio)” value falls from -1.26 to ≤ -4.2.

U33G C38A C93U A113U G136A A138U and U31G C32U C72A C123G G152A cannot be ordered by “polymerase ribozyme fitness (log ratio)” value: ≤ -4.2 for the first, ≤ -4.2 for the second.

U31G A39G U55A A66C G68C C69U G117A and U33A A115G U139G cannot be ordered by “polymerase ribozyme fitness (log ratio)” value: ≤ -4.2 for the first, ≤ -4.2 for the second.

U33G G68A C87G C108U A120C G136U and U31C C32A G80C G81A A115C C118G G133A cannot be ordered by “polymerase ribozyme fitness (log ratio)” value: ≤ -4.2 for the first, ≤ -4.2 for the second.

Compared with U31C G143A, C32G G58C G94U is lower in “polymerase ribozyme fitness (log ratio)” value: 0.14 for the first, -3.86 for the second.

First: C35U A39C U56C C63U A110C A115G A121G G126A
Second: U33G G58C A120G G133C
The “polymerase ribozyme fitness (log ratio)” value of the first is lower: ≤ -4.2 for the first, -3.81 for the second.

Going from C32U U44A G50U U78C G83U A120G to U33G G50U U90G C96G, the “polymerase ribozyme fitness (log ratio)” value rises from ≤ -4.2 to -3.98.

Going from U33G G94A C123G G136A to C35U A142G, the “polymerase ribozyme fitness (log ratio)” value rises from ≤ -4.2 to -1.79.

Going from C35U C51U A52C C76G C93G A115U to U31G C35U C57U G117A, the “polymerase ribozyme fitness (log ratio)” value rises from ≤ -4.2 to -0.0701.

Going from C35G C87U to C35U A40C U45G G50A G88U A91G G140C, the “polymerase ribozyme fitness (log ratio)” value falls from -4.18 to ≤ -4.2.

U33A G50A U53A C85G C96G A97U C114G U139A and G34U G42A U82C U135C cannot be ordered by “polymerase ribozyme fitness (log ratio)” value: ≤ -4.2 for the first, ≤ -4.2 for the second.

First: U31A A66C G67C G88A G141A U146G
Second: U31C G34A C69G C85U U134C
The “polymerase ribozyme fitness (log ratio)” value of the first is lower: ≤ -4.2 for the first, -1.39 for the second.

Compared with G34C C87U, U31A C75G C95U C118U is lower in “polymerase ribozyme fitness (log ratio)” value: -3.33 for the first, -3.7 for the second.

U31G G71U and C35A A49G C87A C103A cannot be ordered by “polymerase ribozyme fitness (log ratio)” value: ≤ -4.2 for the first, ≤ -4.2 for the second.

C35G A49U G124C and C32G G46A A52G U53A A60U C87A A89U A142U cannot be ordered by “polymerase ribozyme fitness (log ratio)” value: ≤ -4.2 for the first, ≤ -4.2 for the second.

Going from C35A U134C to U33A G83A C95U U151C, the “polymerase ribozyme fitness (log ratio)” value falls from -3.61 to ≤ -4.2.

First: U33G C95U
Second: C35A G42A A91U
The “polymerase ribozyme fitness (log ratio)” value of the first is higher: -2.22 for the first, -3.84 for the second.

U33C A122G U127G and U31C G34A U78C G83C U145G cannot be ordered by “polymerase ribozyme fitness (log ratio)” value: ≤ -4.2 for the first, ≤ -4.2 for the second.

C32U A49C A52G G58U G62C C131G and C32G G42U U55A U61A C85A C95A A107U cannot be ordered by “polymerase ribozyme fitness (log ratio)” value: ≤ -4.2 for the first, ≤ -4.2 for the second.

C35A U53A G62A and C35U A91G G117U A142U cannot be ordered by “polymerase ribozyme fitness (log ratio)” value: ≤ -4.2 for the first, ≤ -4.2 for the second.

Compared with C32U C96G, G34C G58A G68C G84A U90G A120G C125G is lower in “polymerase ribozyme fitness (log ratio)” value: -1.58 for the first, ≤ -4.2 for the second.

Compared with U33G U53G C54U G58A C69U C85A C114U U151A, C32G G59A G83A A98C A110G is higher in “polymerase ribozyme fitness (log ratio)” value: ≤ -4.2 for the first, -4.09 for the second.

Going from U31G U53A A91G A122G to U31G G50A C51U G62C G68U C95U U101G A106C, the “polymerase ribozyme fitness (log ratio)” value falls from -3.62 to ≤ -4.2.

First: G34A G46A C76G G136A U144A
Second: U31A A91G U144G
The “polymerase ribozyme fitness (log ratio)” value of the first is lower: ≤ -4.2 for the first, -1.84 for the second.

First: C35U A52U C95G A106U A107G C118G
Second: C35U C54U U55A C116G
The “polymerase ribozyme fitness (log ratio)” value of the first is lower: ≤ -4.2 for the first, 0.41 for the second.

Going from C35U A98G C99A U101C G141A to U31C G83C U111C G152A, the “polymerase ribozyme fitness (log ratio)” value rises from ≤ -4.2 to -3.66.

G34U C99G A106U U127A C132U U139C and G34A U78G G86U A106G A115G A120G cannot be ordered by “polymerase ribozyme fitness (log ratio)” value: ≤ -4.2 for the first, ≤ -4.2 for the second.
